“Also recorded” adds a separate entry of the source.
What was measured:
[1] = system: HEK 293T cells expressing APP; assay: APP-expressing HEK 293T cells co-incubated with culture medium containing secreted ApoE2 or ApoE CT: α-CTF; assay type: cell-based, human; settings: vs GFP control
Experimental: (§1) • a) A plasmid expressing the target protein in mammalian cells was constructed, and the protein expression promoter is CAG. • b) The target protein was expressed in HEK 293T cell line. Cells were subcultured one day before transfection, and transfection was performed when the degree of cell adhesion reached 70%-80%. The transfection reagent was lipofectamine2000 (ThermoFisher). • c) 4-6 hours post transfection, the medium were replaced with fresh cell culture medium. • d) 36-48 hours post transfection, the cells were lysed (10% 1M tris-HCl (pH=6.8), 4% SDS, 20% glycerol, 0.01% bromophenol blue), and the protein samples were collected and used for Western blot or stored in a −80° C. freezer. • e) Polyacrylamide gel electrophoresis. Before protein loading, the protein was boiled at 98° C. for 10 min, and then centrifuged at 12000 rpm for 10 min. Electrophoresis: 80V for the upper stacking gel; 120V for the lower separating gel. • f) Protein transfer. […]

APLP1 = assay: γ-cleavage of APLP1 expressed in HEK 293T cells (Western blot); assay type: cell-based; settings: PF03084014 at 1 μM
Experimental: as §1
Plasmids were transfected in HEK 293T or N2A cells for 36-48 hours and then lysed in cell lysis buffer [10% 1M tris-HCl (pH=6.8), 4% SDS, 20% glycerol, 0.01% bromophenol blue]. […] Finally, after washing 3 times with 1×TBST, the signal was detected by ECL Western blotting substrate (Solarbio, PE0010).

[2] = system: APP co-expressed in mouse neuron cell line N2A; assay: α-CTF produced by APP co-expressed in N2A cells (Western blot); assay type: cell-based
Experimental: Plasmids were transfected in HEK 293T or N2A cells for 36-48 hours and then lysed in cell lysis buffer [10% 1M tris-HCl (pH=6.8), 4% SDS, 20% glycerol, 0.01% bromophenol blue]. Lysates were shaken at room temperature for 10 min, then boiled for 10 min, and centrifuged at 12,000×g for 10 min. Proteins were run on 8% or 12% Tris-glycine SDS-PAGE and transferred to PVDF membranes (Life Technologies). Samples were incubated overnight at 4° C. with primary antibody diluted in 5% BSA buffer (in 1×TBST). After washing 3 times with 1×TBST, they were incubated with secondary antibody diluted in 5% BSA buffer (in 1×TBST) for 2 hours at room temperature. Finally, after washing 3 times with 1×TBST, the signal was detected by ECL Western blotting substrate (Solarbio, PE0010).
Data were analyzed by GraphPad Prism software (v6) using unpaired, paired, or one-sample t-tests. Aβ40 and Aβ42 levels were normalized to the corresponding GFP controls. α-CTF levels were normalized to FL-APP and corresponding GFP controls. All data are represented as mean±SEM. Statistical significance was defined as p<0.05. One, two, three and four stars (*) in the graph indicate p-values <0.05, <0.01, <0.001 and <0.0001, respectively.

[3] = system: human pluripotent stem cell-induced neurons; assay: Endogenous Aβ40 in human pluripotent stem cell-induced neurons (lentivirus, ELISA); assay type: cell-based
Experimental: • a) Construction of lentivirus expression plasmids, lentivirus-GFP and lentivirus-ApoE CT, which can be specifically expressed in neurons. • b) The lentivirus vectors were cotransfected with coat protein vectors (PSPAX2 and PMD2G) in HEK 293T cell line. Cells were subcultured one day before transfection, and transfection was performed when the degree of cell adhesion reached 70%-80%. The transfection reagent was Polyjet (SignaGen). • c) 36-48 hours after the transfection, the cell culture was collected and filtered through a 0.22 μm filter membrane. • d) The filtered cell culture solution was ultracentrifuged. Centrifuged at 20000 rpm, 4° C. for 2 hours and 5 minutes. • e) After centrifugation, the supernatant was removed, and the precipitation of every three precipitates of 10 cm cell culture medium was resuspended with 50 μl of PBS. • f) The resuspended virus was subpackaged and stored in a −80° C. refrigerator for subsequent experiments.
48 hours after transfection of HEK 293T cells and N2A cells, or 4.5 days after lentivirus infection of neurons, media and lysates were collected. Aβ40 and Aβ42 in the culture medium and cell lysates were detected by an Aβ ELISA kit as indicated in the protocol. (Invitrogen Technology; KHB3481 for human Aβ40, KHB3441 for human Aβ42 and KMB3481 for mouse Aβ40).

B1: ApoE CT: C-terminal fragment of ApoE, positions 216-299 of SEQ ID NO: 12; SEQ ID NO: 33 (protein)
chain: ARMEEMGSRTRDRLDEVKEQVAEVRAKLEEQAQQIRLQAEAFQARLKSWFEPLVEDMQRQWAGLVEKVQAAVGTSAAPVPSDNH
[1]
  α-CTF produced by APP in cells co-incubated with protein in culture medium: does not significantly alter α-CTF levels; also recorded: does not change the α-CTF; also recorded: does not alter the α-CTF
APLP1
  α-like CTF of APLP1: does not increase the α-like CTF of APLP1; also recorded: did not increase the α-like CTF
[2]
  level of α-CTF compared with ApoE2: significantly increases the level of α-CTF
[2]; Western blot, vs GFP control
  α-CTF produced by co-expressed APP: significantly increases α-CTF
[3]; hiPSC-induced neurons, lentiviral infection
  reduction in Aβ40 production: approximately 46%
[3]; human neurons from pluripotent stem cell line, lentivirus
  endogenous Aβ40: also reduces endogenous Aβ40
[3]; human pluripotent stem cell-induced neurons
  endogenous production of Aβ40: about 54 % of controls
